This is an account of results in patent US20260116920A1 (PEPTIDREAM, published 2026).

Where “and” joins values, the source holds several entries; their conditions need not be identical. Equal values may be shown once. Starred links: 1 amine or outer side, 2 acyl side, 3 side chain; linkers in the order of their positions; H or OH if unused. Positions of bridges follow the written chain, without caps; N, C: chain ends. Non-standard residues stand in square brackets, D forms with d. Primed or numbered codes have the meaning given here. No end group written: not given here. *: point of attachment. E(PEG8Me) = (S)-30-amino-27-oxo-2,5,8,11,14,17,20,23-octaoxa-26-azahentriacontane-31-oic acid, COCCOCCOCCOCCOCCOCCOCCOCCNC(=O)CC[C@H](N[*:1])C(=O)[*:2]; Phe(4-OMe)(3) = (S)-2-amino-3-(4-methoxyphenyl)propanoic acid (source code F4OMe), COc1ccc(C[C@H](N[*:1])C(=O)[*:2])cc1; F4aao = (S)-2-amino-3-(4-(carboxymethoxy)phenyl)propanoic acid, O=C([C@H](Cc1ccc(OCC(=O)[*:3])cc1)N[*:1])[*:2]; Ndm = N4,N4-dimethyl-L-asparagine, CN(C)C(=O)C[C@H](N[*:1])C(=O)[*:2]; Trp(1-CH2CO) = O=C([C@H](Cc1cn(CC(=O)[*:3])c2ccccc12)N[*:1])[*:2]; Trp(5-Cl) = N[C@@H](Cc1c[nH]c2ccc(Cl)cc12)C(=O)O; Phe(3-COOH) = N[C@@H](Cc1cccc(C(=O)O)c1)C(=O)O; NH(CH2CH2O)8Me = COCCOCCOCCOCCOCCOCCOCCOCCN*; NMePhe(3-Cl) = CN[C@@H](Cc1cccc(Cl)c1)C(=O)O; NMePhe(4-F) = CN[C@@H](Cc1ccc(F)cc1)C(=O)O; 3Pal(6-NH2) = Nc1ccc(C[C@H](N)C(=O)O)cn1; NMeY = CN[C@@H](Cc1ccc(O)cc1)C(=O)O; NMeR = CN[C@@H](CCCNC(=N)N)C(=O)O; NMeF = CN[C@@H](Cc1ccccc1)C(=O)O; 3Pal = N[C@@H](Cc1cccnc1)C(=O)O; 4Pal = N[C@@H](Cc1ccncc1)C(=O)O Bounds are passed on as bounds.

Assay [1] concerns the target T1, human transferrin receptor (hTfR) (human, UniProt P02786 89-760).
T1 construct: used as 0.5 uM hTfR dimer solution, immobilised on an NTA sensor chip (Ni capture plus EDC/NHS coupling); also called human TfR; TfR1
Put plainly: SPR; C = KD 100 nM-1 uM. On the procedure:
(§1) NTA sensor chip (Global Life Sciences Technologies Japan K.K.) was inserted into BiacoreT200 (Global Life Sciences Technologies Japan K.K.), then the priming operation was performed three times by using running buffer containing: 10 mM HEPES pH 8.0 (Nacalai Tesque, Inc.), 150 mM NaCl (Nacalai Tesque, Inc.), 0.05% Tween 20 (Nacalai Tesque, Inc.), 0.1% BSA (SIGMA-ALDRICH) and 1.0% DMSO (FUJIFILM Wako Pure Chemical Corporation), and equilibrated at a flow rate of 30 μL/min. 350 mM EDTA solution was reacted at a flow rate of 10 μL/min for 60 seconds, 0.5 mM […] solution (Kishida Chemical Co., Ltd.) was reacted at a flow rate of 10 μL/min for 60 seconds, and then the NTA sensor chip was washed with 3 mM EDTA solution (Nacalai Tesque, Inc.) at a flow rate of 10 μL/min for 60 seconds. After mixing 50 μL each of 60 mM EDC solution (Global Life Science Technologies Japan K.K.) and 650 mM NHS solution (Global Life Science Technologies Japan K.K.), the reaction was carried out at a flow rate of 10 μL/min for 420 seconds. 150 μL of 0.5 μM hTfR dimer solution was prepared by dilution with running buffer and reacted at a flow rate of 10 μL/min for 300 seconds to immobilize hTfR on the NTA sensor chip. For the human transferrin receptor (hTfR), recombinant hTfR described in Example 2 of WO2018/124121 was used. After immobilization, capping was performed by reacting with 1.0 M ethanolamine solution (Global Life Sciences Technologies Japan K.K.) at a flow rate of 10 μL/min for 420 seconds. Peptide lysate prepared in DMSO solution to 10 mM was diluted with running buffer to be a final concentration of 10 μM peptide lysate, then peptide solutions of 100 nM, 50 nM, 25 nM, 10 nM, and 5 nM were prepared. Using the above samples, the kinetics of the peptide against hTfR was obtained by SPR measurement.
(§2) The kinetic evaluation model was single-cycle kinetics, and curve fitting was performed using Biacore T200 Evaluation Software Version 3.0 (Global Life Science Technologies Japan K.K.). The binding of the peptide to hTfR was evaluated by performing curve fitting on the obtained sensorgram by least squares method and obtaining the KD value.

The target of assay [2] is T1, human transferrin receptor (hTfR). Description: SPR; ratio to 894_3151. On the technique in general: In SPR one partner is held on a chip, and binding of the other changes the refractive index at the surface.
Assay [3] shares this target. Description: SPR; A = KD <1 nM. On the procedure:
as §1, §2

For assay [4] the target is unchanged. Put plainly: SPR, hTfR immobilised, single-cycle kinetics. Here is the method:
(§3) NTA sensor chip (Global Life Sciences Technologies Japan K.K.) was inserted into BiacoreT200 (Global Life Sciences Technologies Japan K.K.), then the priming operation was performed three times by using running buffer containing: 10 mM HEPES pH 8.0 (Nacalai Tesque, Inc.), 150 mM NaCl (Nacalai Tesque, Inc.), 0.05% Tween 20 (Nacalai Tesque, Inc.), 0.1% BSA (SIGMA-ALDRICH) and 1.0% DMSO (FUJIFILM Wako Pure Chemical Corporation), and equilibrated at a flow rate of 30 μL/min. 350 mM EDTA solution was reacted at a flow rate of 10 μL/min for 60 seconds, 0.5 mM […] solution (Kishida Chemical Co., Ltd.) was reacted at a flow rate of 10 μL/min for 60 seconds, and then the NTA sensor chip was washed with 3 mM EDTA solution (Nacalai Tesque, Inc.) at a flow rate of 10 μL/min for 60 seconds. After mixing 50 μL each of 60 mM EDC solution (Global Life Science Technologies Japan K.K.) and 650 mM NHS solution (Global Life Science Technologies Japan K.K.), the reaction was carried out at a flow rate of 10 μL/min for 420 seconds. […]
as §2

For assay [5] the target is unchanged. Description: SPR, hTfR immobilised; legend: low signal indicates no activity. Here is the method: as §3, §2

T1 sequence (P02786 89-760 limits assumed): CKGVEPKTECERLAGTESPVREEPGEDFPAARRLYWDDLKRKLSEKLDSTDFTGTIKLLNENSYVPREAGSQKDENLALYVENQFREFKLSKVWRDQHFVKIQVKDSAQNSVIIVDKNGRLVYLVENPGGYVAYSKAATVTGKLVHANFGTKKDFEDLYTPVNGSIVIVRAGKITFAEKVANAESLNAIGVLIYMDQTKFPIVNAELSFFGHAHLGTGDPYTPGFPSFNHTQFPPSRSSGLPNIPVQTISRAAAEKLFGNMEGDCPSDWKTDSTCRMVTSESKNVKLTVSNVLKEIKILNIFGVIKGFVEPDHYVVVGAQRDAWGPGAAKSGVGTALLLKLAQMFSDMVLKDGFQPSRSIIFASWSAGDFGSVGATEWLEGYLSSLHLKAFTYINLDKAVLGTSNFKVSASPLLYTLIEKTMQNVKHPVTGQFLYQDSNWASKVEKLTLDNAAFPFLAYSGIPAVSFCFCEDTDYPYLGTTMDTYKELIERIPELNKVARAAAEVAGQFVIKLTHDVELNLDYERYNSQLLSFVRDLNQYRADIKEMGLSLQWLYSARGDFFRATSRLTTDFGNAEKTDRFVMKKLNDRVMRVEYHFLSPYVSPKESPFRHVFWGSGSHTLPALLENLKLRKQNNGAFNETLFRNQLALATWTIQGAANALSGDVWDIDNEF

B1: 894_0257 (peptide)
peptide: {CH2CO}-AV[NMePhe(4-F)]V[Trp(5-Cl)]NYYII[NMeR][dR]FYC-NH2
modifications: thioether N-15; not fully specified (residue 14); also: linker PEG4c, place not given here
For orientation: KD means the constant that tells how readily two partners part at equilibrium. Read a high KD as a looser complex. Regarding B1, the KD in assay [1] fell in the range of 100 to 1000 nM. Still for that read-out and setting: the figure for {CH2CO}-AV[NMePhe(3-Cl)]V[Trp(1-CH2CO)]N[3Pal(6-NH2)][F4aao]IIRE(NH(CH2CH2O)8Me)[Phe(3-COOH)][NMeY]C-NH2 (thioether N-15; also: linker PEG4c) [894_0355] is 100 to 1000 nM. As for {CH2CO}-AV[NMePhe(3-Cl)]V[Trp(1-CH2CO)]N[3Pal(6-NH2)][3Pal]IIRE(NH(CH2CH2O)8Me)[Phe(3-COOH)][NMeY]C-NH2 (thioether N-15; also: linker PEG4c) [894_0353], the equilibrium dissociation constant (KD) in assay [1] fell in the range of 100 to 1000 nM.

B2: 894_3152 (peptide)
peptide: {CH2CO}-AV[NMeF]VW[Ndm]YYIIRRY[NMeY]C-NH2
modifications: thioether N-15
SMILES: CC[C@H](C)[C@@H]1NC(=O)[C@H](Cc2ccc(O)cc2)NC(=O)[C@H](Cc2ccc(O)cc2)NC(=O)[C@H](CC(=O)N(C)C)NC(=O)[C@H](Cc2c[nH]c3ccccc23)NC(=O)[C@H](C(C)C)NC(=O)[C@H](Cc2ccccc2)N(C)C(=O)[C@H](C(C)C)NC(=O)[C@H](C)NC(=O)CSC[C@@H](C(N)=O)NC(=O)[C@H](Cc2ccc(O)cc2)N(C)C(=O)[C@H](Cc2ccc(O)cc2)NC(=O)[C@H](CCCNC(=N)N)NC(=O)[C@H](CCCNC(=N)N)NC(=O)[C@H]([C@@H](C)CC)NC1=O
B2 came in with a KD in assay [1] of 100 to 1000 nM. Still for that read-out and setting: the figure for {CH2CO}-AV[NMePhe(3-Cl)]VWN[3Pal(6-NH2)][F4aao]II[E(PEG8Me)]R[4Pal][NMeY]C-NH2 (thioether N-15; also: linker PEG4c, attachment not given here) [894_0455] is 100 to 1000 nM. On the same count and under the same terms, the figure for {CH2CO}-AV[NMePhe(3-Cl)]V[Trp(1-CH2CO)]N[3Pal(6-NH2)][3Pal]IIRE(NH(CH2CH2O)8Me)[4Pal][NMeY]C-NH2 (thioether N-15; also: linker PEG4c) [894_0354] is 100 to 1000 nM. The term Kd denotes the constant that tells how readily two partners part at equilibrium. High values mean a looser complex, low ones a tighter complex. For the molecule {CH2CO}-AV[NMeF]VWNYYIIRRY[NMeY]C (thioether N-15; not fully specified (C-terminus)) [894_3151], the “KD (Each Peptide)/KD (894_3151)” value in assay [2] is 1 and 1.4. This molecule also registered a KD in assay [3] of less than 1 nM. The Kd in assay [4] is 1.3 nM and 1.8 nM.

Molecule {CH2CO}-AV[NMePhe(3-Cl)]V[Trp(1-CH2CO)]N[3Pal(6-NH2)][F4aao]IIRE(NH(CH2CH2O)8Me)[4Pal][NMeY]C-NH2 (thioether N-15; also: linker PEG4c) [894_0356] displayed a KD in assay [1] of 100 to 1000 nM.

In the case of {CH2CO}-AV[NMePhe(3-Cl)]V[Trp(1-CH2CO)]NY[Phe(4-OMe)(3)]IE[E(PEG8Me)][E(PEG8Me)]F[NMeY]C-NH2 (thioether N-15; also: linker G-de-de-de-ds-ds-KN3, attachment not given here) [894_3180], the binding result in assay [5] is “no binding (tested: peptide tested up to 100 nM)”.
